Measured values published in article PMC8539922, “Reconstitution of Caveolin-1 into Artificial Lipid Membrane: Characterization by Transmission Electron Microscopy and Solid-State Nuclear Magnetic Resonance” (Molecules, 2021).
Where no end group is shown, it is not given here.

Target: the molecule itself
Experiment: negative-stain TEM + thioflavin-T fluorescence; peptide dissolved in DMSO, diluted to 1 mg/mL in 20 mM Tris, pH 8.0, incubated at 37 °C for 48 h

B1: CAV1(168-178) peptide (peptide)
peptide: SNVRINLQKEI
modifications: not fully specified
notes: Caveolin-1, residues 168-178 of the α-isoform; The ends of the two caps as printed seem swapped (a rink amide resin gives a C-terminal amide; acetyl is usually N-terminal); also called CAV1 C-terminal peptide; CAV1 C-terminus; source: synthetic peptide (Fmoc solid phase, HPLC purified)
- binding result: binds
